Data: article PMC9772228, “Structure of a RecT/Redβ family recombinase in complex with a duplex intermediate of DNA annealing”
Substitutions are numbered along the chain they refer to.

Legend:
Assay in all cases: EMSA; EMSA: PBS pH 7.4 (or KH2PO4/10 mM MgCl2 pH 6.0), 3.6 or 5 uM protein, 25 uM nt DNA, 37 C 15 min per strand, 0.8% agarose 1x TBE; cryo-EM: 20 mM KH2PO4 (Results: 10 mM), 10 mM MgCl2 pH 6.0, 37 C; native MS: 100 mM ammonium acetate pH 7, 37 C
Settings in all cases: protein: recombinant, tags: N-terminal 6His vector tag (20 aa) retained, chain copies: 10
[1] = molecular target: T1, LiRecT Q107H (Listeria innocua CLIP 11262, UniProt Q92FL9 1-271, Q107H)
T1 sequence: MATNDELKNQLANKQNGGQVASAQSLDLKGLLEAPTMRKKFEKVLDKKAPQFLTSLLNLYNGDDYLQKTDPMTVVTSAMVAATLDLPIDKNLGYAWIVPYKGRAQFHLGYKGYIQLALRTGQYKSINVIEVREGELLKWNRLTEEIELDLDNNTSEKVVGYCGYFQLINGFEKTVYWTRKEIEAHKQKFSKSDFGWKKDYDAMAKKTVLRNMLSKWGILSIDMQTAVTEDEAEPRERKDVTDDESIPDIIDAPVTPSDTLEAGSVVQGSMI

[2] = molecular target: T2, LiRecT V98A/Y100A/Q107A (Listeria innocua CLIP 11262, UniProt Q92FL9 1-271, V98A;Y100A;Q107A)
T2 sequence: T1 sequence with V98A, Y100A, H107A

[3] = molecular target: T3, LiRecT K180A (Listeria innocua CLIP 11262, UniProt Q92FL9 1-271, K180A)
T3 sequence: T1 sequence with H107Q, K180A

[4] = molecular target: T4, LiRecT K157A (Listeria innocua CLIP 11262, UniProt Q92FL9 1-271, K157A)
T4 sequence: T1 sequence with H107Q, K157A

[5] = molecular target: T5, LiRecT Y100E (Listeria innocua CLIP 11262, UniProt Q92FL9 1-271, Y100E)
T5 sequence: T1 sequence with Y100E, H107Q

[6] = label: 5'-Cy3;5'-Cy5, 49 bp, 1 nt 5' overhang at each end

Measured: binding result

CCATCCGCAAAAATCGAGCTATGCAGGGCGATTCTGCTCTAAGCCATCCG (ssDNA) [Cy5-50mer]
binds: [1]; label: 5'-Cy5, single strand | [2]; label: 5'-Cy5, single strand | [3]; label: 5'-Cy5, single strand | [4]; label: 5'-Cy5, single strand | [5]; label: 5'-Cy5, single strand

B1: 50-mer duplex intermediate (sequential addition) (dsDNA)
DNA 1: GCGGATGGCTTAGAGCAGAATCGCCCTGCATAGCTCGATTTTTGCGGATG
DNA 2: CCATCCGCAAAAATCGAGCTATGCAGGGCGATTCTGCTCTAAGCCATCCG
binds: [1]; [6] | [2]; [6] | [3]; [6] | [4]; [6] | [5]; [6]

GCGGATGGCTTAGAGCAGAATCGCCCTGCATAGCTCGATTTTTGCGGATG (ssDNA) [Cy3-50mer]
binds: [1]; label: 5'-Cy3, single strand | [2]; label: 5'-Cy3, single strand | [3]; label: 5'-Cy3, single strand | [4]; label: 5'-Cy3, single strand | [5]; label: 5'-Cy3, single strand
